Patent publication US20240132578A1

How the values were obtained:
Test in all cases: cell-based or functional assay
[1] = target: HIV-1 Env of pseudovirus MGRM-D-012 (HIV-1)
[2] = target: HIV-1 Env of pseudovirus MGRM-D-019 (HIV-1)
[3] = target: HIV-1 Env of pseudovirus MGRM-D-022 (HIV-1)
[4] = target: HIV-1 Env of pseudovirus MGRM-D-029 (HIV-1)
[5] = target: HIV-1 Env of isolate MG RM-A-013 (pseudovirus) (HIV-1)
[6] = target: HIV-1 Env of isolate MGRM-C-020 (subtype C), on pseudovirus (HIV-1)
[7] = target: HIV-1 Env of isolate MGRM-C-022 (subtype C), on pseudovirus (HIV-1)
[8] = target: HIV-1 Env of isolate MGRM-C-025 (subtype C), on pseudovirus (HIV-1)
[9] = target: HIV-1 Env of isolate MGRM-C-028 (subtype C), on pseudovirus (HIV-1)
[10] = target: HIV-1 Env of isolate MGRM-D-002 (HIV-1)
[11] = target: HIV-1 Env of isolate MGRM-D-008 (HIV-1)
[12] = target: HIV-1 Env of isolate MGRM-G-015 (subtype G) (HIV-1)
[13] = target: HIV-1 Env of pseudovirus isolate 93TH305 (clade B) (HIV-1)
[14] = target: HIV-1 94UG103 Env (HIV-1)
[15] = target: HIV-1 CMU02 Env (HIV-1)
[16] = target: HIV-1 Env of isolate 92TH021 (subtype AE) (HIV-1)
[17] = target: HIV-1 Env of isolate CMU02 (subtype AE) (HIV-1)
[18] = target: HIV-1 Env of isolate MGRM-A-003 (pseudovirus) (HIV-1)
[19] = target: HIV-1 Env of isolate MGRM-A-004 (pseudovirus) (HIV-1)
[20] = target: HIV-1 Env of isolate MGRM-A-007 (subtype A) (HIV-1)
[21] = target: HIV-1 Env of isolate MGRM-A-014 (subtype A) (HIV-1)
[22] = target: HIV-1 Env of isolate MGRM-AE-001 (subtype AE) (HIV-1)
[23] = target: HIV-1 Env of isolate MGRM-AE-008 (subtype AE) (HIV-1)
[24] = target: HIV-1 Env of isolate MGRM-F1-013 (HIV-1)
[25] = target: HIV-1 Env of isolate MGRM-F1-016 (HIV-1)
[26] = target: HIV-1 Env of pseudovirus isolate MGRM-C-008 (clade C) (HIV-1)
[27] = target: HIV-1 Env of pseudovirus isolate MGRM-C-014 (clade C) (HIV-1)
[28] = target: HIV-1 Env of pseudovirus isolate MGRM-C-027 (clade C) (HIV-1)
[29] = target: HIV-1 JR-CSF Env S393A (HIV-1 (isolate JR-CSF)) (UniProt P20871)
[30] = target: HIV-1 JR-CSF Env T394A (HIV-1 (isolate JR-CSF)) (UniProt P20871)

PGT-143 (4980_N08) (antibody)
IC50, pseudovirus neutralization [1]: > 50 mg/L | IC50, pseudovirus neutralization [2]: 0.277 mg/L | IC50, pseudovirus neutralization [3]: > 50 mg/L | IC50, pseudovirus neutralization [4]: 0.2 mg/L

PGT-142 (4995_E20) (antibody)
IC50, pseudovirus neutralization [1]: > 50 mg/L | IC50, pseudovirus neutralization [2]: 0.155 mg/L | IC50, pseudovirus neutralization [3]: > 50 mg/L | IC50, pseudovirus neutralization [4]: 0.192 mg/L

PGT-144 (4970_K22) (antibody)
IC50, pseudovirus neutralization [1]: > 50 mg/L | IC50, pseudovirus neutralization [2]: > 50 mg/L | IC50, pseudovirus neutralization [3]: > 50 mg/L | IC50, pseudovirus neutralization [4]: 0.459 mg/L

PGT-141 (4964_G22; 4993_K13) (antibody)
IC50, pseudovirus neutralization [1]: > 50 mg/L | IC50, pseudovirus neutralization [2]: 1.66 mg/L | IC50, pseudovirus neutralization [3]: > 50 mg/L | IC50, pseudovirus neutralization [4]: 0.057 mg/L

4970_K22 (PGT-144) (antibody)
IC50 (µg/mL), single-round pseudovirus neutralization [5]: > 50 µg/mL | IC50, single-round pseudovirus neutralization [6]: 1.29 mg/L | IC50, single-round pseudovirus neutralization [7]: 2.58 mg/L | IC50, single-round pseudovirus neutralization [8]: 17.6 mg/L | IC50, single-round pseudovirus neutralization [9]: > 50 mg/L | IC50 (µg/mL), pseudovirus neutralization [10]: > 50 µg/mL | IC50 (µg/mL), pseudovirus neutralization [11]: 9.85 µg/mL | IC50 (µg/mL), pseudovirus neutralization [12]: > 50 µg/mL | IC50, pseudovirus neutralization [13]: > 50 mg/L

4995_E20 (PGT-142) (antibody)
IC50 (µg/mL), single-round pseudovirus neutralization [5]: 3.77 µg/mL | IC50, single-round pseudovirus neutralization [6]: 0.446 mg/L | IC50, single-round pseudovirus neutralization [7]: 0.086 mg/L | IC50, single-round pseudovirus neutralization [8]: 0.183 mg/L | IC50, single-round pseudovirus neutralization [9]: 2.12 mg/L | IC50 (µg/mL), pseudovirus neutralization [10]: > 50 µg/mL | IC50 (µg/mL), pseudovirus neutralization [11]: 0.174 µg/mL | IC50 (µg/mL), pseudovirus neutralization [12]: > 50 µg/mL | IC50, pseudovirus neutralization [13]: 5.86 mg/L

VRC01 (antibody)
IC50 (µg/mL), single-round pseudovirus neutralization [5]: 0.152 µg/mL | IC50, single-round pseudovirus neutralization [6]: 0.396 mg/L | IC50, single-round pseudovirus neutralization [7]: 13 mg/L | IC50, single-round pseudovirus neutralization [8]: 2.36 mg/L | IC50, single-round pseudovirus neutralization [9]: 0.319 mg/L | IC50 (µg/mL), pseudovirus neutralization [10]: 0.252 µg/mL | IC50 (µg/mL), pseudovirus neutralization [11]: 0.854 µg/mL | IC50 (µg/mL), pseudovirus neutralization [12]: 0.548 µg/mL | IC50, pseudovirus neutralization [1]: 0.216 mg/L | IC50, pseudovirus neutralization [2]: 0.119 mg/L | IC50, pseudovirus neutralization [3]: > 50 mg/L | IC50, pseudovirus neutralization [4]: 3.22 mg/L | IC50, pseudovirus neutralization [13]: 0.243 mg/L

4995_P16 (PGT-145) (antibody)
IC50 (µg/mL), single-round pseudovirus neutralization [5]: 1.76 µg/mL | IC50, single-round pseudovirus neutralization [6]: 0.712 mg/L | IC50, single-round pseudovirus neutralization [7]: 0.492 mg/L | IC50, single-round pseudovirus neutralization [8]: 0.044 mg/L | IC50, single-round pseudovirus neutralization [9]: 0.099 mg/L | IC50 (µg/mL), pseudovirus neutralization [10]: > 50 µg/mL | IC50 (µg/mL), pseudovirus neutralization [11]: 0.025 µg/mL | IC50 (µg/mL), pseudovirus neutralization [12]: 10.5 µg/mL | IC50, pseudovirus neutralization [13]: 0.032 mg/L

4980_N08 (PGT-143) (antibody)
IC50 (µg/mL), single-round pseudovirus neutralization [5]: 9.24 µg/mL | IC50, single-round pseudovirus neutralization [6]: 0.797 mg/L | IC50, single-round pseudovirus neutralization [7]: 0.103 mg/L | IC50, single-round pseudovirus neutralization [8]: 0.336 mg/L | IC50, single-round pseudovirus neutralization [9]: 12.4 mg/L | IC50 (µg/mL), pseudovirus neutralization [10]: > 50 µg/mL | IC50 (µg/mL), pseudovirus neutralization [11]: 0.153 µg/mL | IC50 (µg/mL), pseudovirus neutralization [12]: > 50 µg/mL | IC50, pseudovirus neutralization [13]: 17.3 mg/L

5147_N06 (PGT-130) (antibody)
IC50, pseudovirus neutralization [14]: 0.635 mg/L | IC50, pseudovirus neutralization [15]: > 10 mg/L | IC50, pseudovirus neutralization [16]: 0.009 mg/L | IC50, pseudovirus neutralization [17]: > 50 mg/L | IC50 (µg/mL), pseudovirus neutralization [18]: > 50 µg/mL | IC50 (µg/mL), pseudovirus neutralization [19]: > 50 µg/mL | IC50, pseudovirus neutralization [20]: > 50 mg/L | IC50, pseudovirus neutralization [21]: 0.161 mg/L | IC50, pseudovirus neutralization [22]: 1 mg/L | IC50, pseudovirus neutralization [23]: > 50 mg/L | IC50 (µg/mL), pseudovirus neutralization [24]: > 50 µg/mL | IC50 (µg/mL), pseudovirus neutralization [25]: > 50 µg/mL | IC50, pseudovirus neutralization [26]: 7.28 mg/L | IC50, pseudovirus neutralization [27]: > 50 mg/L | IC50, pseudovirus neutralization [28]: 0.008 mg/L | Fold IC50 increase relative to wild-type (pseudovirus neutralization) [29]: 0.7 fold | Fold IC50 increase relative to wild-type (pseudovirus neutralization) [30]: 1.2 fold

5136_H01 (PGT-131) (antibody)
IC50, pseudovirus neutralization [16]: 0.014 mg/L | IC50, pseudovirus neutralization [17]: > 50 mg/L | IC50 (µg/mL), pseudovirus neutralization [18]: > 50 µg/mL | IC50 (µg/mL), pseudovirus neutralization [19]: > 50 µg/mL | IC50, pseudovirus neutralization [20]: > 50 mg/L | IC50, pseudovirus neutralization [21]: 15.4 mg/L | IC50, pseudovirus neutralization [22]: 4.8 mg/L | IC50, pseudovirus neutralization [23]: > 50 mg/L | IC50 (µg/mL), pseudovirus neutralization [24]: > 50 µg/mL | IC50 (µg/mL), pseudovirus neutralization [25]: > 50 µg/mL | IC50, pseudovirus neutralization [26]: > 50 mg/L | IC50, pseudovirus neutralization [27]: > 50 mg/L | IC50, pseudovirus neutralization [28]: 0.065 mg/L | Fold IC50 increase relative to wild-type (pseudovirus neutralization) [29]: 1.1 fold | Fold IC50 increase relative to wild-type (pseudovirus neutralization) [30]: 0.9 fold

4993_K13 (PGT-141) (antibody)
IC50 (µg/mL), single-round pseudovirus neutralization [5]: 9.86 µg/mL | IC50, single-round pseudovirus neutralization [6]: 1.34 mg/L | IC50, single-round pseudovirus neutralization [7]: 0.381 mg/L | IC50, single-round pseudovirus neutralization [8]: 0.247 mg/L | IC50, single-round pseudovirus neutralization [9]: 13.8 mg/L | IC50 (µg/mL), pseudovirus neutralization [10]: > 50 µg/mL | IC50 (µg/mL), pseudovirus neutralization [11]: 0.371 µg/mL | IC50 (µg/mL), pseudovirus neutralization [12]: > 50 µg/mL | IC50, pseudovirus neutralization [13]: > 50 mg/L

PGT-145 (4995_P16) (antibody)
IC50, pseudovirus neutralization [1]: > 50 mg/L | IC50, pseudovirus neutralization [2]: 0.111 mg/L | IC50, pseudovirus neutralization [3]: 34.3 mg/L | IC50, pseudovirus neutralization [4]: 0.03 mg/L
